Results reported in the supplement of paper PMC10567573.

B1: PCMTD2 (parent)
chain: FFIRTSDSFDKFDFCEPSFVTGNC

Variants of: B1
Assay: protein stability index of a GFP-peptide fusion (GPS, HEK-293T) (PSI 1-6); higher = more stable
Conditions: c terminus: a fixed tail appended
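Note: lentivirally expressed fusions sorted by FACS into six bins by GFP to DsRed ratio, PSI derived from sequencing read proportions per bin multiplied by bin number.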

Protein stability index, by site and new letter:
F14: D 2.42; K 1.99; H 1.94; A 2.31; C 2.76; W 2.71; M 2.1; P 2.55; S 1.84; V 2.05; L 1.91; E 2; N 2.27; G 1.82; T 2.5; Y 2.92; R 2.37; Q 1.89; I 2.31
V20: W 2.15; I 2.54; E 2.26; D 1.76; A 2.2; Y 1.91; L 3.22; H 2.32; N 2.73; T 2.58; Q 1.79; R 2.53; K 1.86; G 1.61; M 2.5; P 1.62; S 2.47; F 3; C 2.37
S18: E 2.4; D 2.42; T 2.54; L 4.02; H 3.19; A 1.76; Y 2.11; P 2.57; R 2.39; W 3.1; K 3.26; V 2.45; M 3.36; G 2.81; F 2.02; I 2.48; N 2.91; C 3.71
D13: C 2.21; R 2.26; H 2.47; G 2.78; Q 3.23; I 3.44; E 2.74; Y 1.6; S 2.57; V 3.37; M 2.65; K 2.85; P 2.4; T 3.18; F 3.38; A 2.99; L 3.27; N 2.42
E16: I 2.85; Q 2.02; S 2.04; G 2.2; F 2.04; N 2.95; D 2.87; H 3.4; V 2.9; R 2.11; K 3.41; M 3.1; C 2.5; P 1.87; Y 3.4; W 3.77; A 2.25
C15: K 2.43; A 2.24; S 2.04; R 2.15; Y 3.03; Q 3.22; F 3.17; G 3.49; L 3.34; P 3.43; N 2.98; W 2.31; H 2.62; D 2.14; M 1.98; T 2.3; V 2.05; E 2.06; I 3.14
N23: V 2.89; A 2.62; S 2.54; G 4.12; D 2.84; W 2.05; K 1.75; I 2.13; E 2.27; Y 1.61; H 2.16; M 1.83; L 3.54; C 3.73; R 2.88; T 2.7; P 1.39; Q 3.51
F19: I 3.34; W 3.83; S 1.66; N 1.64; Y 1.67; H 1.25; D 2.11; V 2.06; E 1.67; R 2.21; K 1.95; M 1.68; G 2.16; A 1.69; C 1.49; P 1.92; T 2.04; Q 1.91; L 2.26
T21: S 2.18; F 3.34; H 1.47; L 3.84; Q 2.22; P 3.61; A 2.61; N 2.27; D 1.71; V 3.86; G 3.28; I 2.9; Y 2.49; W 2.76; E 2.4; M 3.19; K 2.3
D10: R 2.56; K 3.06; S 2.22; Q 2.54; V 3.82; L 2.67; T 2.81; N 2.72; I 2.31; W 3.23; P 2.94; M 3.52
C24: T 2.24; F 3.29; R 2.27; D 1.64; S 2.78; L 2.66; H 2.43; G 2.09; P 1.74; Y 2.53; A 2.73; K 1.92; Q 2.85; E 2.04; N 1.47; M 3.61
P17: K 2; F 2.3; L 3.54; W 4.64; E 2.18; D 1.47; V 4.75; S 2.03; Y 3.1; I 2.35; H 3.52; C 2.42; Q 2.51; A 2.74; N 2.05; G 2.03; T 3.13; M 2.69
K11: E 2.95; L 2.42; I 3.4; W 3.22; R 3.1; D 2.86; C 2.65; M 4.28; G 2.57; N 2.42; S 3.53; Y 3.27; P 2.72; F 3.16; Q 3.58; V 3.4; A 2.13; H 2.24; T 2.84
G22: V 4.43; M 3.08; E 2.16; P 3.09; L 2.03; N 2.16; R 1.87; A 2; H 3.63; W 3.23; T 2.24; S 2.07; C 2.71; I 2.8; F 1.68; Y 1.85; Q 2.74; K 2.1
F12: S 1.71; L 3.58; K 1.99; Q 1.69; N 1.61; W 3.92; P 1.61; M 2.05; T 2.22; C 2.74; R 1.77; I 2.05; A 2.4; G 2.05; D 1.69; V 2.47; Y 2.79; H 2.07; E 1.92
